From article doi:10.1101/2020.02.13.948224 (bioRxiv, 2020)

Tests used:
native gel or EMSA = biological target: the molecule itself; assay: native gel or EMSA
mouse RBPj (aa 53-474) = mouse RBPj (aa 53-474) (mouse, UniProt P31266 53-474); assay: native gel or EMSA
Chain of mouse RBPj (aa 53-474) (P31266 53-474): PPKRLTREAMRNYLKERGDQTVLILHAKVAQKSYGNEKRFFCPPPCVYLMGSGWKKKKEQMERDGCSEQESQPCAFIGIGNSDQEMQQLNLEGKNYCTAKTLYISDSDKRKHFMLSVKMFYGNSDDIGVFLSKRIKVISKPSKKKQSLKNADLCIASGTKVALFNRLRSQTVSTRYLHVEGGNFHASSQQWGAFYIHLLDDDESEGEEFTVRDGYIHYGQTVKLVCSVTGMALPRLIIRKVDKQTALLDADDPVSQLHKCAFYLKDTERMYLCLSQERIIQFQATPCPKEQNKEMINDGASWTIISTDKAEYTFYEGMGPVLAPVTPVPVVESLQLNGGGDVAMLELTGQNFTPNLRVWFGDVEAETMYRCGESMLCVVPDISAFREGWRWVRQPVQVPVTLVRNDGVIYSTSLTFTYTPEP

Binder	binding result (native gel or EMSA)	binding result (mouse RBPj (aa 53-474))
mouse N1ICD (aa 1744-2113) (domain or fragment, UniProt Q01705 1744-2113, looked up) VLLSRKRRRQHGQLWFPEGFKVSEASKKKRREPLGEDSVGLKPLKNASDGALMDDNQNEWGDEDLETKKFRFEEPVVLPDLSDQTDHRQWTQQHLDAADLRMSAMAPTPPQGEVDADCMDVNVRGPDGFTPLMIASCSGGGLETGNSEEEEDAPAVISDFIYQGASLHNQTDRTGETALHLAARYSRSDAAKRLLEASADANIQDNMGRTPLHAAVSADAQGVFQILLRNRATDLDARMHDGTTPLILAARLAVEGMLEDLINSHADVNAVDDLGKSALHWAAAVNNVDAAVVLLKNGANKDMQNNKEETPLFLAAREGSYETAKVLLDHFANRDITDHMDRLPRDIAQERMHHDIVRLLDEYNLVRSPQ	binds	binds
mouse N1^RAICD (aa 1744-2113) (domain or fragment, UniProt Q01705 1744-2113, looked up) VLLSRKRRRQHGQLWFPEGFKVSEASKKKRREPLGEDSVGLKPLKNASDGALMDDNQNEWGDEDLETKKFRFEEPVVLPDLSDQTDHRQWTQQHLDAADLRMSAMAPTPPQGEVDADCMDVNVRGPDGFTPLMIASCSGGGLETGNSEEEEDAPAVISDFIYQGASLHNQTDRTGETALHLAARYSRSDAAKRLLEASADANIQDNMGRTPLHAAVSADAQGVFQILLRNAATDLDARMHDGTTPLILAARLAVEGMLEDLINSHADVNAVDDLGKSALHWAAAVNNVDAAVVLLKNGANKDMQNNKEETPLFLAAREGSYETAKVLLDHFANRDITDHMDRLPRDIAQERMHHDIVRLLDEYNLVRSPQ	–	binds
human SMT3-MAML1 (aa 1-280) (domain or fragment, UniProt Q92585 1-280, looked up) MVLPTCPMAEFALPRHSAVMERLRRRIELCRRHHSTCEARYEAVSPERLELERQHTFALHQRCIQAKAKRAGKHRQPPAATAPAPAAPAPRLDAADGPEHGRPATHLHDTVKRNLDSATSPQNGDQQNGYGDLFPGHKKTRREAPLGVAISSNGLPPASPLGQSDKPSGADALQSSGKHSLGLDSLNKKRLADSSLHLNGGSNPSESFPLSLNKELKQEPVEDLPCMITGTVGSISQSNLMPDLNLNEQEWKELIEELNRSVPDEDMKDLFNEDFEEKKD	–	binds
